± gives the uncertainty stated by the source.

Results on 38 sequences are retold here after the supplement of paper PMC7877785.

The data set can be described thus: self-splicing fitness, log relative to wild type (ln ratio); higher = more splicing; Tetrahymena group I intron in knt gene, E. coli kanamycin selection, DiMSum; sequences stand for … in CUCUCU…GGAGGGAAAAGUUAUCAGGCAUGCACCUGGUAGCUAGUCUUUAAACCAAUAGAUUGCAUCGGUUUAAAAGGCAAGACCGUCAAAUUGCGGGAAAGGGGUCAACAGCCGUUCAGUACCAAGUCUCAGGGGAAACUUUGAGAUGGCCUUGCAAAGGGUAUGGUAAUAAGCUGACGGACAUGGUCCUAACCACGCAGCCAAGUCCUAAGUCAACAGAUCUUCUGUUGAUAUGGAUGCAGUUCACAGACUAAAUGUCGGUCGGGGAAGAUGUAUUCUUCUCAUAAGAUAUAGUCGGACCUCUCCUUAAUGGGAGCUAGCGGAUGAAGUGAUGCAACACUGGAGCCGCUGGGAACUAAUUUGUAUGCGAAAGUAUAUUGAUUAGUUUUGGAGUACUCGUGGUCG
The essentials: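 Library with all eight P1ex-region intron nucleotides randomised, intron inside the knt kanamycin-resistance gene on pET-22b(+), in E. coli BL21(DE3). Cells grew overnight at 37°C or 30°C on LB agar with or without 25 μg/mL kanamycin (plus 100 μg/mL carbenicillin, 50 μM IPTG, 0.2% rhamnose), in six replicate transformations. Pooled colonies were amplicon-sequenced on Illumina HiSeq 2500. DiMSum fitness is the error-weighted combination of wild-type-normalised replicate fold changes, kanamycin versus none.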

For AACGAGCAAUAUUACGUUGA, the “self-splicing fitness (ln)” value reads like this: (30 °C) -3.48 ± 0.21; (37 °C) -3.32 ± 0.22. Taken in the same sequence, the figures for ACGCAGCAAUAUUACGUUAA were -3.4 ± 0.31 and -2.88 ± 0.24. Regarding UGUAAGCAAUAUUACGUAAG, the “self-splicing fitness (ln)” value is -1.86 ± 0.15 (30 °C) and -1.84 ± 0.11 (37 °C). Consider UUGGAGCAAUAUUACGUGUC, for which the “self-splicing fitness (ln)” value runs as follows: (30 °C) -3.26 ± 0.22; (37 °C) -2.77 ± 0.38. Taken in the same sequence, the figures for AGAUAGCAAUAUUACGUCCA were 0.498 ± 0.11 and 0.122 ± 0.18. In the case of UAUAAGCAAUAUUACGGGUC, the “self-splicing fitness (ln)” value runs as follows: (30 °C) -3.27 ± 0.34; (37 °C) -1.78 ± 0.24. On to ACAAAGCAAUAUUACGAGGA, for which the “self-splicing fitness (ln)” value (30 °C) is -3.04 ± 0.2 and the “self-splicing fitness (ln)” value (37 °C) was -2.07 ± 0.19.

As to CCGGAGCAAUAUUACGUGCG, the “self-splicing fitness (ln)” value was -1.42 ± 0.077 (30 °C) and -0.676 ± 0.091 (37 °C). As for GGUAAGCAAUAUUACGGCGA, the “self-splicing fitness (ln)” value runs as follows: (30 °C) -0.523 ± 0.11; (37 °C) -0.26 ± 0.13. Take AUAAAGCAAUAUUACGGGGG: the “self-splicing fitness (ln)” value is -2.77 ± 0.28 (30 °C) and -2.66 ± 0.28 (37 °C). Taken in the same sequence, the figures for CGCAAGCAAUAUUACGAGGG were -3.85 ± 0.23 and -2.9 ± 0.32. With AUAAAGCAAUAUUACGCGAC, the “self-splicing fitness (ln)” value was -1.4 ± 0.13 (30 °C) and -0.298 ± 0.13 (37 °C).

In the case of CGGGAGCAAUAUUACGACAG, the “self-splicing fitness (ln)” value was -1.7 ± 0.22 (30 °C) and -0.944 ± 0.38 (37 °C). Take AAGGAGCAAUAUUACGCCCC: the “self-splicing fitness (ln)” value runs as follows: (30 °C) -1.19 ± 0.47; (37 °C) -1.42 ± 0.46. Consider CUGAAGCAAUAUUACGGAGG, for which the “self-splicing fitness (ln)” value was -3.67 ± 0.21 (30 °C) and -1.81 ± 0.24 (37 °C).

Consider ACCCAGCAAUAUUACGCGGC, for which the “self-splicing fitness (ln)” value was -2.93 ± 0.17 (30 °C) and -2.76 ± 0.26 (37 °C). On the same counts, the results for CUUAAGCAAUAUUACGUGAG are -3.73 ± 0.19 and -2.14 ± 0.14. On the same counts, the results for UCAAAGCAAUAUUACGGGGU are -3.42 ± 0.17 and -3.33 ± 0.26.

Consider CUCUAGCAAUAUUACGUCAC, for which the “self-splicing fitness (ln)” value (30 °C) was -2.66 ± 0.19. As to UAGAAGCAAUAUUACGGUCC, the “self-splicing fitness (ln)” value runs as follows: (30 °C) -1.92 ± 0.22; (37 °C) -1.57 ± 0.2. On to CGUCAGCAAUAUUACGCUGG, for which the “self-splicing fitness (ln)” value (30 °C) was -2.6 ± 0.3 and the “self-splicing fitness (ln)” value (37 °C) is -2.14 ± 0.34. Taken in the same sequence, the figures for GGAAAGCAAUAUUACGUAGG were -3.23 ± 0.12 and -2.23 ± 0.14. In the case of GAGGAGCAAUAUUACGUUGU, under “37 °C”, the “self-splicing fitness (ln)” value is -1.87 ± 0.33. Turning to UCGGAGCAAUAUUACGUUGC, the “self-splicing fitness (ln)” value was -2.44 ± 0.28 (30 °C) and -1.78 ± 0.42 (37 °C). On the same counts, the results for UUCAAGCAAUAUUACGCACG are -1.11 ± 0.11 and -0.411 ± 0.14. Taken in the same sequence, the figures for CCUCAGCAAUAUUACGCGAC were -3.47 ± 0.28 and -2.08 ± 0.22.

For CGUGAGCAAUAUUACGCGGU, the “self-splicing fitness (ln)” value runs as follows: (30 °C) -3.83 ± 0.34; (37 °C) -2.06 ± 0.32. Taken in the same sequence, the figures for UCUUAGCAAUAUUACGCGAU were -3.71 ± 0.33 and -3.67 ± 0.34. For the sequence ACAUAGCAAUAUUACGUAUU, the “self-splicing fitness (ln)” value is, setting by setting: (30 °C) -4.38 ± 0.21; (37 °C) -2.78 ± 0.23. As to CUUGAGCAAUAUUACGAUGA, the “self-splicing fitness (ln)” value (30 °C) is -1.49 ± 0.23 and the “self-splicing fitness (ln)” value (37 °C) is -2.03 ± 0.28. On the same counts, the results for GGGGAGCAAUAUUACGUAGG are -2.68 ± 0.2 and -1.85 ± 0.21.

On to GGCGAGCAAUAUUACGUGAA, for which the “self-splicing fitness (ln)” value reads like this: (30 °C) -2.49 ± 0.12; (37 °C) -0.0823 ± 0.13. As for CCAUAGCAAUAUUACGGUGC, the “self-splicing fitness (ln)” value was -3.09 ± 0.17 (30 °C) and -2.61 ± 0.25 (37 °C). As to CAGGAGCAAUAUUACGCACG, the “self-splicing fitness (ln)” value by setting is: (30 °C) -1.71 ± 0.088; (37 °C) 0.544 ± 0.15. Taken in the same sequence, the figures for GCGCAGCAAUAUUACGUAUA were -1.31 ± 0.06 and -1.05 ± 0.081.

In the case of AUCGAGCAAUAUUACGACGA, the “self-splicing fitness (ln)” value reads like this: (30 °C) -0.908 ± 0.099; (37 °C) -0.324 ± 0.13. Consider CGUAAGCAAUAUUACGGUCC, for which the “self-splicing fitness (ln)” value is -2.31 ± 0.18 (30 °C) and -2.18 ± 0.24 (37 °C).

Regarding AACAAGCAAUAUUACGGUAA, the “self-splicing fitness (ln)” value (30 °C) was -1.83 ± 0.1 and the “self-splicing fitness (ln)” value (37 °C) is -1.04 ± 0.096.
